Results from article PMC10175742.

Biological target: N-cadherin (UniProt P19022)
Assay: confocal 3D colocalisation
Conditions: reference: nonfailing control (NFC) heart tissue; sites S637,S647,T649,S650

other: Pearson's correlation coefficient: stronger; reference 0.55 ± 0.04
Substance: αT-catenin (CTNNA3) (from UniProt Q9UI47) DCM heart tissue
